These binders were tested against SLC41A1 (human) (assay: split-ubiquitin method screen (DUALmembrane SU-YTH) for SLC41A1 complex-forming partners).
Chain of SLC41A1 (human) (chain, as listed by the source limits assumed): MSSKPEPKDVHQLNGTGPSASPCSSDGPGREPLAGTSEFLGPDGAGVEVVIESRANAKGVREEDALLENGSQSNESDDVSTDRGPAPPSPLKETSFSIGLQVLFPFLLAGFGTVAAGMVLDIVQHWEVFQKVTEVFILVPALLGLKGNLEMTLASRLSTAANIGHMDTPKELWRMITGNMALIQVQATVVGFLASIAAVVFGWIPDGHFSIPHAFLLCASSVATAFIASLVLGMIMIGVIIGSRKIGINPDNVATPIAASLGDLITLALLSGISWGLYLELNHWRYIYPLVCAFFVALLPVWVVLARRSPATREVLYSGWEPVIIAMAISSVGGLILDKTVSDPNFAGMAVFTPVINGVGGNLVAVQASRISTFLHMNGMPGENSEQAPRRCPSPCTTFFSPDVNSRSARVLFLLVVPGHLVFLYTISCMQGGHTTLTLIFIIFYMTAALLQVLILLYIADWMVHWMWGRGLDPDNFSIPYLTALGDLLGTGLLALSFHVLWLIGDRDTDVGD

| Binder | occurrence |
| --- | --- |
| B-cell receptor-associated protein 31 (other) MSLQWTAVATFLYAEVFVVLLLCIPFISPKRWQKIFKSRLVELLVSYGNTFFVVLIVILVLLVIDAVREIRKYDDVTEKVNLQNNPGAMEHFHMKLFRAQRNLYIAGFSLLLSFLLRRLVTLISQQATLLASNEAFKKQAESASEAAKKYMEENDQLKKGAAVDGGKLDVGNAEVKLEEENRSLKADLQKLKDELASTKQKLEKAENQVLAMRKQSEGLTKEYDRLLEEHAKLQAAVDGPMDKKEE | 10 clones |
| ATP synthase subunit a (Tachyglossus aculeatus aculeatus) (other) MNENLFASFITPTILGISILPLIMIFPCLLFSAPNRWMPNRLVALQLWLVRMVTKQMMSMHNKQGRMWTLMLITLIMFIASTNLLGLLPYTFTPTTQLSMNMGMAVPLWLGTVLMGFRNKPKSSLAHFLPQGTPTPLIPMLIIIETISLFIQPVALAVRLTANITAGHLLIHLIGSATLALSSISLTVSTITFTILFLLTILEIAVALIQAYVFTLLVSLYLHDNT | 1 clones |
| ATP synthase subunit a (Homo sapiens) (other) MNENLFASFIAPTILGLPAAVLIILFPPLLIPTSKYLINNRLITTQQWLIKLTSKQMMTMHNTKGRTWSLMLVSLIIFIATTNLLGLLPHSFTPTTQLSMNLAMAIPLWAGTVIMGFRSKIKNALAHFLPQGTPTPLIPMLVIIETISLLIQPMALAVRLTANITAGHLLMHLIGSATLAMSTINLPSTLIIFTILILLTILEIAVALIQAYVFTLLVSLYLHDNT | 1 clones |
| Protein YIPF6 (other) MAEAEESPGDPGTASPRPLFAGLSDISISQDIPVEGEITIPMRSRIREFDSSTLNESVRNTIMRDLKAVGKKFMHVLYPRKSNTLLRDWDLWGPLILCVTLALMLQRDSADSEKDGGPQFAEVFVIVWFGAVTITLNSKLLGGNISFFQSLCVLGYCILPLTVAMLICRLVLLADPGPVNFMVRLFVVIVMFAWSIVASTAFLADSQPPNRRALAVYPVFLFYFVISWMILTFTPQ | 2 clones |
| Immediate early response 3-interacting protein 1 (other) MAFTLYSLLQAALLCVNAIAVLHEERFLKNIGWGTDQGIGGFGEEPGIKSQLMNLIRSVRTVMRVPLIIVNSIAIVLLLLFG | 3 clones |
| Probable ergosterol biosynthetic protein 28 (other) MSRFLNVLRSWLVMVSIIAMGNTLQSFRDHTFLYEKLYTGKPNLVNGLQARTFGIWTLLSSVIRCLCAIDIHNKTLYHITLWTFLLALGHFLSELFVYGTAAPTIGVLAPLMVASFSILGMLVGLRYLEVEPVSRQKKRN | 2 clones |
| ATP synthase subunit a (Pan troglodytes) (other) MNENLFASFAAPTILGLPAAVLIILFPPLLVPTSKHLINNRLITTQQWLIQLTSKQMMTMHSTKGRTWSLMLVSLIIFITTTNLLGLLPHSFTPTTQLSMNLAMAIPLWAGAVVMGFRFKTKNALAHFLPQGTPTPLIPMLVIIETISLLIQPMALAVRLTANITAGHLLMHLIGSATLALSTINLPYALIIFTILILLTILEIAVALIQAYVFTLLVSLYLHDNT | 1 clones |
| 3-beta-hydroxysteroid-Delta(8), Delta(7)-isomerase (Rattus norvegicus) (enzyme) MTTNMLPLHPYWPRHLRLDNFVPNDLPTWHILVGLFSFSGVLIVITWLLSSRVSVVPLGTGRRLALCWFAVCTFIHLVIEGWFSFYHEILLEDQAFLSQLWKEYSKGDSRYILSDGFIVCMESVTACLWGPLSLWVVIAFLRHQPFRFVLQLVVSVGQIYGDVLYFLTELRDGFQHGELGHPLYFWFYFVIMNAIWLVIPGILVFDAIKHLTNAQSMLDNKVMKIKSKHN | 1 clones |
| ATP synthase subunit a (Cricetulus griseus) (other) MNENLFSSFITPTLMGLPIIILIIMFPPVIMTSSKRLVNNRFHTFQQWLIKLITKQMMAIHSPKGRTWSLMLASLIIFIGSTNLLGLLPHTFTPTTQLSMNLGMAIPPWAGAVILGFRHKMKDSLAHFLPQGTPIPLIPMLVIIETISLFIQPMALAVRLTANITAGHLLMHLIGGATLVLTSISLPTAMITFIILIMLTILEFAVALIQAYVFTLLVSLYLHDNT | 1 clones |
| Peptidyl-prolyl cis-trans isomerase B (enzyme) not shown | 5 clones |
| Kunitz-type protease inhibitor 2 (other) ADRERSIHDFCLVSKVVGRCRASMPRWWYNVTDGSCQLFVYGGCDGNSNNYLTKEECLKKCATVTENATGDLATSRNAADSSVPSAPRRQDSEDHSSDMFNYEEYCTANAVTGPCRASFPRWYFDVERNSCNNFIYGGCRGNKNSYRSEEACMLRCFRQQENPPLPLGSKVVVLAGLFVMVLILFLGASMVYLIRVARRNQERALRTVWSSGDDKEQLVKNTYVL | 2 clones |
| Protein disulfide-isomerase A6 (enzyme) LYSSSDDVIELTPSNFNREVIQSDSLWLVEFYAPWCGHCQRLTPEWKKAATALKDVVKVGAVDADKHHSLGGQYGVQGFPTIKIFGSNKNRPEDYQGGRTGEAIVDAALSALRQLVKDRLGGRSGGYSSGKQGRSDSSSKKDVIELTDDSFDKNVLDSEDVWMVEFYAPWCGHCKNLEPEWAAAASEVKEQTKGKVKLAAVDATVNQVLASRYGIRGFPTIKIFQKGESPVDYDGGRTRSDIVSRALDLFSDNAPPPELLEIINEDIAKRTCEEHQLCVVAVLPHILDTGAAGRNSYLEVLLKLADKYKKKMWGWLWTEAGAQSELETALGIGGFGYPAMAAINARKMKFALLKGSFSEQGINEFLRELSFGRGSTAPVGGGAFPTIVEREPWDGRDGELPVEDDIDLSDVELDDLGKDEL | 11 clones |

Next, values leading:

| occurrence | Binder |
| --- | --- |
| 2 clones | Uncharacterized protein C10orf35 (other) MVRILANGEIVQDDDPRVRTTTQPPRGSIPRQSFFNRGHGAPPGGPGPRQQQAGARLGAAQSPFNDLNRQLVNMGFPQWHLGNHAVEPVTSILLLFLLMMLGVRGLLLVGLVYLVSHLSQR |
| 3 clones | UPF0414 transmembrane protein C20orf30 (other) MMPSRTNLATGIPSSKVKYSRLSSTDDGYIDLQFKKTPPKIPYKAIALATVLFLIGAFLIIIGSLLLSGYISKGGADRAVPVLIIGILVFLPGFYHLRIAYYASKGYRGYSYDDIPDFDD |
| 1 clones | UPF0480 protein C15orf24 homolog (other) SEVPGAAAEGSGGSGVGIGDRFKIEGRAVVPGVKPQDWISAARVLVDGEEHVGFLKTDGSFVVHDIPSGSYVVEVVSPAYRFDPVRVDITSKGKMRARYVNHIKTSEVVRLPYPLQMKSSGPPSYFIKRESWGWTDFLMNPMVMMMVLPLLIFVLLPKVVNTSDPDMRREMEQSMNMLNSNHELPDVSEFMTRLFSSKSSGKSSSGSSKTGKSGAGKRR |
| 4 clones | UPF0480 protein C15orf24 (other) SEVPGAAAEGSGGSGVGIGDRFKIEGRAVVPGVKPQDWISAARVLVDGEEHVGFLKTDGSFVVHDIPSGSYVVEVVSPAYRFDPVRVDITSKGKMRARYVNYIKTSEVVRLPYPLQMKSSGPPSYFIKRESWGWTDFLMNPMVMMMVLPLLIFVLLPKVVNTSDPDMRREMEQSMNMLNSNHELPDVSEFMTRLFSSKSSGKSSSGSSKTGKSGAGKRR |
| 2 clones | Signal peptidase complex subunit 1 (other) MARGGDTGCTGPSETSASGAVAIAFPGLEGPPADAQYQTLALTVPKSWSPSPRSLPPALSCPPPQPAMLEHLSSLPTQMDYKGQKLAEQMFQGIILFSAIVGFIYGYVAEQFGWTVYIVMAGFAFSCLLTLPPWPIYRRHPLKWLPVQESSTDDKKPGERKIKRHAKNN |
| 2 clones | Transmembrane protein 147 (other) MTLFHFGNCFALAYFPYFITYKCSGLSEYNAFWKCVQAGVTYLFVQLCKMLFLATFFPTWEGGIYDFIGEFMKASVDVADLIGLNLVMSRNAGKGEYKIMVAALGWATAELIMSRCIPLWVGARGIEFDWKYIQMSIDSNISLVHYIVASAQVWMITRYDLYHTFRPAVLLLMFLSVYKAFVMETFVHLCSLGSWAALLARAVVTGLLALSTLALYVAVVNVHS |
| 2 clones | Transmembrane protein 14A (other) MDLIGFGYAALVTFGSIFGYKRRGGVPSLIAGLFVGCLAGYGAYRVSNDKRDVKVSLFTAFFLATIMGVRFKRSKKIMPAGLVAGLSLMMILRLVLLLL |
| 2 clones | Uncharacterized protein C4orf3 (other) MEVDAPGVDGRDGLRERRGFSEGGRQNFDVRPQSGANGLPKHSYWLDLWLFILFDVVVFLFVYFLP |
| 4 clones | Translocon-associated protein subunit gamma (other) MAPKGSSKQQSEEDLLLQDFSRNLSAKSSALFFGNAFIVSAIPIWLYWRIWHMDLIQSAVLYSVMTLVSTYLVAFAYKNVKFVLKHKVAQKREDAVSKEVTRKLSEADNRKMSRKEKDERILWKKNEVADYEATTFSIFYNNTLFLVVVIVASFFILKNFNPTVNYILSISASSGLIALLSTGSK |

From patent US20130174289A1, “Na+/Mg2+ Exchanger” (FBN - Leibnitz-Institut fur Nutztierbiologie, published 2013)
